Measurements from the DeepSol protein solubility set.

Assay: soluble on expression in E. coli; label from the status in PepcDB or PDB records
In the case of “GMSDLQSLQPKLLWQWFDQICAIPHPSYKEEQLAQFIINWAKTKGFFAERDEVGNVLIRKPATVGMENRKPVVLQAHLDMVPQANEGTNHNFDQDPILPYIDGDWVKAKGTTLGADNGIGMASALAVLESNDIAHPELEVLLTMTEERGMEGAIGLRPNWLRSEILINTDTEENGEIYIGCAGGENADLELPIEYQVNNFEHCYQVVLKGLRGGHSGVDIHTGRANAIKVLLRFLAELQQNQPHFDFTLANIRGGSIRNAIPRESVATLVFNGDITVLQSAVQKFADVIKAELALTEPNLIFTLEKVEKPQQVFSSQCTKNIIHCLNVLPNGVVRNSDVIENVVETSLSIGVLKTEDNFVRSTMLVRSLIESGKSYVASLLKSLASLAQGNINLSGDYPGWEPQSHSDILDLTKTIYAQVLGTDPEIKVIHAGLECGLLKKIYPTIDMVSIGPTIRNAHSPDEKVHIPAVETYWKVLTGILAHIPSR”, the “soluble on expression in E. coli” value is reported as “soluble”.
For “GMSRTLVLFDIDGTLLKVESMNRRVLADALIEVYGTEGSTGSHDFSGKMDGAIIYEVLSNVGLERAEIADKFDKAKETYIALFRERARREDITLLEGVRELLDALSSRSDVLLGLLTGNFEASGRHKLKLPGIDHYFPFGAFADDALDRNELPHIALERARRMTGANYSPSQIVIIGDTEHDIRCARELDARSIAVATGNFTMEELARHKPGTLFKNFAETDEVLASILTPKHS”, the “soluble on expression in E. coli” value was “soluble”.
With “GMTDGEAVSAAAGPGAEGPPGPVGHWAPGSHILWRYRENGGPHVHIARPVTVVRDDADLLAVWLAPGTECVKPVLADGTPVHLEPLATRYTKPRTVQRDQWFGTGVLKLARPGEAWSVWLFWDPGWRFKNWYVNLERPLTRWEGGVDSEDHFLDISVHPDRTWHWRDEDEFAQALRDGLMDPASAGRVRRAGRSAVAEIRAWGSPFADGWEHWRPDPAWPVPSLPGDWDRTPAHVSS” the “soluble on expression in E. coli” value was “soluble”.
For “GMTTPPARTAKQRIQDTLNRLELDVDAWVSTAGADGGAPYLVPLSYLWDGETFLVATPAASPTGRNLSETGRVRLGIGPTRDLVLVEGTALPLEPAGLPDGVGDTFAEKTGFDPRRLTTSYLYFRISPRRVQAWREANELSGRELMRDGEWLVTD”, the “soluble on expression in E. coli” value was “soluble”.
In the case of “GNGRFLTLKPLPDSIIQESLEIQQGVNPFFIGRSEDCNCKIEDNRLSRVHCFIFKKRHAVGKSMYESPAQGLDDIWYCHTGTNVSYLNNNRMIQGTKFLLQDGDEIKIIWDKNNKFVIGFKVEINDTTGLFNEGLGMLQEQRVVLKQTAEEKDLVKKL”, the “soluble on expression in E. coli” value is reported as “soluble”.
For “GNKIPTTMAFRTVTDVDNAVNGLYDLMSGSGYYGAAMFAYGDMKGDDMQSSEESGVCNTCYMFNHRPNSLNAGSLWGRPFYILREAWNILNAIAEGKIESGDEKKLNALKGETMAVIALCQFDLTRCFGYPYTKDKGASLGAPLIDHLVGTYENPPRSTVAQAYDFIIETLEEAVTLMSEEKNNGRMNKYAARALLARIYLYHDDNRKAFDLADQLIKDADTSGSYALYPHEKYVAAWSVEAKFGSESFFEIANSVDDTPGRDSWGYLLNWYGYQKGFVTQKYAEQMLADPGDVRGHLLEENKYAGKTVWWLYKLRGTDLKTAPLECNNVVLRLSEVYLIAAEAGCKLGGDAAVQGLGYLNEIVKRGNPDNEVTMADYTLDRVLDERSKELVGEGHRFFDLLRNGKTIVRKGGYHLPSVDEEVDWDFYKCVLPIPEDQFIFSPEMEQNPGYPKN”, the “soluble on expression in E. coli” value was “soluble”.
In the case of “GNNMYKLSENNHKSLLENLKRRGIIDDDDVYNTMLQVDRGKYIKEIPYIDTPVYISHGVTISAPHMHALSLKRLINVLKPGSRAIDVGSGSGYLTVCMAIKMNVLENKNSYVIGLERVKDLVNFSLENIKRDKPELLKIDNFKIIHKNIYQVNEEEKKELGLFDAIHVGASASELPEILVDLLAENGKLIIPIEEDYTQVLYEITKKNGKIIKDRLFDVCFVSLKKN”, the “soluble on expression in E. coli” value is reported as “soluble”.
In the case of “GNWAEITDEISKIYQDNQYKIRQINDVDAVSDKRREALQALFEHTGRNVIVYYSAWLENGRRFSGQSTDFSVNDTDKNSFMTALHKLDQSKGLDLILHTPGGDVAATESLVDYIHALFGQDFRVIVPQLAMSAGTMIALSSKEIVMGKHSSLGPIDPQFNGLPAHGLLEEFEQAKKEVSENPQTAHIWQVILNKYNPTMLGEAKKAIQWSNSMVKQWLEKGMFLDEPDKEEKATRAIKELADHSVTLAHNRHISVSKALELGLNIKELESDPKLQDLVLTLHHLSVIAAQRGPLIKFVVNHDNRGTF”, the “soluble on expression in E. coli” value is reported as “not soluble”.
For “GPELYHYQECVRGTTVLLKEPCPSGTYEGNSPFHPLADNKFALTCTSTHFAFACADGTRHTYQLRARSVSPKLFIRQEEVQQELYSR”, the “soluble on expression in E. coli” value was “soluble”.
